How the values were obtained:
SP3 = SP3 (UniProt Q02447); experiment: co-immunoprecipitation, western blot; conditions: reference: wild type; sites T361,T366,S381,S387
SP1 = SP1 (UniProt P08047); experiment: co-immunoprecipitation, western blot; conditions: reference: wild type; sites T361,T366,S381,S387

In the case of “ELK4 (from UniProt P28324) 4MA (T361/T366/S381/S387A)”, the “binding against the reference” value (SP3) is reported as “weaker” and the “binding against the reference” value (SP1) is reported as “weaker”.
